One assay has as its system rice HPPD (OsHPPD). In words: Color reaction of recombinant E. coli expressing wild-type or mutant rice HPPD, cultured in 96-well plate in medium containing an HPPD-inhibiting herbicide and tyrosine. Format: cell-based, Oryza sativa. The note with it: tembotrione and metabolic product of benzuofucaotong, FIG. 1. The source says:
The rice full-length OsHPPD enzyme has 446 amino acids and its amino acid sequence is set forth in SEQ ID NO: 2, wherein the amino acids 1-50 are considered to constitute a signal peptide which is responsible for directing into chloroplast (Siehl et al. Plant Physiol. 2014 November; 166(3): 1162-1176). Therefore, from the amino acid at the 51-position to the amino acid at the […], a saturated random mutation was made for each amino acid. This was achieved by performing a bridge PCR by using a primer containing a coding sequence of an amino acid to be mutated into NNK and another suitable conventional primer. In NNK, N represented A/T/G/C and K represented G/T, and the NNK codon could encode any one of 20 amino acids or terminators. Accordingly, this was a saturated mutation. Please see: Kille S. Acevedo-Rocha C G, Parra L P, Zhang Z G, Opperman D J, Reetz M T, Acevedo J P (2013) Reducing codon redundancy and screening effort of combinatorial protein libraries created by saturation mutagenesis. ACS Synth Biol 2(2):83-92; Directed Evolution Library Creation: methods and protocols 2nd ed. Edited by Elizabeth M. J. Gillam, Janine N. Copp and David F. Ackerley New York, NY United States: Springer, 2014. doi:10.1007/978-1-4939-1053-3. A large number of mutants would be produced. The mutant was cloned into a linearized pET-44a vector and transformed into E. co/i, which was cultivated by using a 96-well plate in a 2×YT culture solution containing an HPPD-inhibiting herbicide (such as 1-2 μM tembotrione) and a substrate tyrosine (1 g/L) in a shaker at 28° C. and 150 rpm for 24 hours for expression, and then the mutants were rapidly screened out according to their color browning. By using the method, 10 single amino acid mutants, A103S, H141R, H141 K, H141T, A165V, V191I, R220K, G342D, D370N and K410I, were screened out. The color reaction of these resistant mutants in the presence of tembotrione and the metabolic product of benzuofucaotong relative to that of the wild type was as shown in FIG. 1.
Similarly, the color reaction of these mutants in the presence of the other three HPPD-inhibiting herbicides huanbifucaotong, topramezone and mesotrione were determined, see FIGS. 2 and 3. The resistance/tolerance of each of the mutants to the five herbicides was roughly estimated on the basis of color changes thereof and the results were shown in Table 1. The more the plus sign “+”, the deeper the color and the higher the resistance/tolerance as compared to the wild type.
HPPD-inhibiting herbicides inhibited HPPD enzymatic activity. When tyrosine was converted to 4-hydroxyphenylpyruvate (HPP) under the action of tyrosine transaminase, the inactivated HPPD was unable to oxidize 4-hydroxyphenylpyruvate into homogentisic acid (HGA). HGA was dark brown. Therefore, if an HPPD mutant was resistant to or tolerant to an herbicide, after expressed in E. coli, the mutant could also oxidize 4-hydroxyphenylpyruvate into homogentisic acid, whereby dark brown appeared. Therefore, E. coli was cultured in a 2×YT culture medium containing a HPPD-inhibiting herbicide and a substrate tyrosine using a 96-well plate to express HPPD, and these mutants were rapidly screened according to their color changes. • (1) Preparation of 2×YT culture medium (1 g/L L-Tyr, 0.1 mM IPTG, 0.01 mM MnCl2 and 100 mg/L ampicillin were added). • (2) 0.1 mL of the above medium was added to each well of a 96-well plate, and the expression clones of OsHPPD wild type or mutant (OsHPPD Mut) from the E. coli plate obtained by the above transformation were subjected to liquid culture in the 96-well plate. HPPD inhibitors having a final concentration of 1 μM-20 μM were added according to different selected agents, for example, the final concentration of tembotrione was 1.7 μM while mesotrione was 10 μM. […]

Assay [1] deals with Huaidao No. 5 rice seedlings. The experiment in a line: Gene-edited rice seedlings (base editing / homologous replacement of HPPD gene) on medium containing tembotrione. The class given is in vivo. The note with it: medium containing 0.4 μM tembotrione. The procedure:
The calli of Huaidao No. 5 (at least 3000 callis) were infected according to the aforesaid method for infecting rice callis with Agrobacterium. After being infected with Agrobacterium, the infected calli were transferred to a 50 mg/L hyg screening medium for screening culture. After three rounds (15 days×3) of screening, the blond calli with good growth state were picked out to differentiate in a differentiation medium, and 0.2 μM tembotrione was added during the differentiation process for screening. After for 3-4 weeks, about 1,500 seedlings with around 1 cm were obtained. As to the about 1,500 differentiated seedlings, the vast majority of which had been bleached, and only 4 seedlings remained normal green. The 4 seedlings were transplanted to a rooting medium containing 0.4 μM tembotrione and cultivated for 2 weeks, wherein two seedlings had been bleached, while the other two seedlings remained green (FIG. 14A). A small number of leaves were used to extract genomic DNA by CTAB method. PCR was carried out by using the primers oshppd54F: TTCCACCACGTCGAGCTC and Oshppd356R: […]. The amplified product was detected by 1% agarose electrophoresis and sequenced by Sanger sequencing method. […]

B1: H141R: single-site mutant rice HPPD (protein, listed as Oryza sativa)
chain: MPPTPTPTATTGAVSAAAAAGENAGFRLVGHRRFVRANPRSDRFQALAFHHVELWCADAASAAGRFAFALGAPLAARSDLSTGNSAHASLLLRSASVAFLFTAPYGGDHGVGADAATTASIPSFSPGAARRFAADHGLAVRAVALRVADAADAFRASVAAGARPAFQPADLGGGFGLAEVELYGDVVLRFVSHPDGADAPFLPGFEGVSNPGAVDYGLRRFDHVVGNVPELAPVAAYISGFTGFHEFAEFTAEDVGTAESGLNSVVLANNAETVLLPLNEPVHGTKRRSQIQTYLDHHGGPGVQHIALASDDVLGTLREMRARSAMGGFEFLAPPPPNYYDGVRRRAGDVLSEEQINECQELGVLVDRDDQGVLLQIFTKPVGDRPTFFLEMIQRIGCMEKDESGQEYQKGGCGGFGKGNFSELFKSIEEYEKSLEAKQAPTVQGS
modifications: The amino acid sequence of Wild-Type rice HPPD protein (OsHPPD _WT)
Turning to B1, the “color change compared with wild type” value in the assay on rice HPPD (OsHPPD) is listed as “obviously deeper than that of the wild type”. The “state of successfully edited seedlings” value in assay [1] is on record as “remain green”.

For the origin of these results see patent US12428627B2, “Mutant p-hydroxyphenylpyruvate dioxygenase, and coding nucleic acid and use thereof” (Qingdao Kingagroot Chemical Compound Co., Ltd., priority 2018, dated 2025).
